Results from patent US20150344570A1 (published 2015).

B1: GpH7-A5/GpH7-B3 variant A327_13S/GpL16-k0 (antibody, human IgG1, kappa)
heavy 1: not shown
heavy 2: not shown
light: DIVMTQSPLSLPVTPGEPASISCQASESLVHSNRNTYLHWYLQKPGQSPQLLIYKVSNRFSGVPDRFSGSGSGTDFTLKISRVEAEDVGVYYCSQNTHVPPTFGQGTKVEIERTVAAPSVFIFPPSDEQLKSGTASVVCLLNNFYPREAKVQWKVDNALQSGNSQESVTEQDSKDSTYSLSSTLTLSKADYEKHKVYACEVTHQGLSSPVTKSFNRGEC
notes: also called He Ab A327_13S
B2: GpH7-A5/GpH7-B3 variant E333_06M/GpL16-k0 (antibody, human IgG1, kappa)
heavy 1: not shown
heavy 2: not shown
light: B1 light
notes: also called He Ab E333_06M
B3: GpH7-A5/GpH7-B3 variant E333_02A/GpL16-k0 (antibody, human IgG1, kappa)
heavy 1: not shown
heavy 2: not shown
light: B1 light
notes: also called He Ab E333_02A
B4: GpH7-A5/GpH7-B3 variant E269_13S/GpL16-k0 (antibody, human IgG1, kappa)
heavy 1: not shown
heavy 2: not shown
light: B1 light
notes: also called He Ab E269_13S
B5: GpH7-A5/GpH7-B3 variant H268_12R/GpL16-k0 (antibody, human IgG1, kappa)
heavy 1: not shown
heavy 2: not shown
light: B1 light
notes: also called He Ab H268_12R
B6: GpH7-A5/GpH7-B3 variant E269_14T/GpL16-k0 (antibody, human IgG1, kappa)
heavy 1: not shown
heavy 2: not shown
light: B1 light
notes: also called He Ab E269_14T
B7: GpH7-A5/GpH7-B3 variant E333_08L/GpL16-k0 (antibody, human IgG1, kappa)
heavy 1: not shown
heavy 2: not shown
light: B1 light
notes: also called He Ab E333_08L
B8: GpH7-A5/GpH7-B3 variant I336_01G/GpL16-k0 (antibody, human IgG1, kappa)
heavy 1: not shown
heavy 2: not shown
light: B1 light
notes: also called He Ab I336_01G
B9: GpH7-A5/GpH7-B3 variant E333_07I/GpL16-k0 (antibody, human IgG1, kappa)
heavy 1: not shown
heavy 2: not shown
light: B1 light
notes: also called He Ab E333_07I
B10: GpH7-A5/GpH7-B3 variant E269_19Q/GpL16-k0 (antibody, human IgG1, kappa)
heavy 1: not shown
heavy 2: not shown
light: B1 light
notes: also called He Ab E269_19Q
B11: GpH7-A5/GpH7-B3 variant G236_02A/GpL16-k0 (antibody, human IgG1, kappa)
heavy 1: not shown
heavy 2: not shown
light: B1 light
notes: also called He Ab G236_02A
B12: GpH7-A5/GpH7-B3 variant E269_08L/GpL16-k0 (antibody, human IgG1, kappa)
heavy 1: not shown
heavy 2: not shown
light: B1 light
notes: also called He Ab E269_08L
B13: GpH7-A5/GpH7-B3 variant A330_14T/GpL16-k0 (antibody, human IgG1, kappa)
heavy 1: not shown
heavy 2: not shown
light: B1 light
notes: also called He Ab A330_14T
B14: GpH7-A5/GpH7-B3 variant I336_18N/GpL16-k0 (antibody, human IgG1, kappa)
heavy 1: not shown
heavy 2: not shown
light: B1 light
notes: also called He Ab I336_18N
B15: GpH7-A5/GpH7-B3 variant E333_04F/GpL16-k0 (antibody, human IgG1, kappa)
heavy 1: not shown
heavy 2: not shown
light: B1 light
notes: also called He Ab E333_04F
B16: GpH7-A5/GpH7-B3 variant E333_05P/GpL16-k0 (antibody, human IgG1, kappa)
heavy 1: not shown
heavy 2: not shown
light: B1 light
notes: also called He Ab E333_05P
B17: GpH7-A5/GpH7-B3 variant E333_13S/GpL16-k0 (antibody, human IgG1, kappa)
heavy 1: not shown
heavy 2: not shown
light: B1 light
notes: also called He Ab E333_13S
B18: GpH7-A5/GpH7-B3 variant E269_16H/GpL16-k0 (antibody, human IgG1, kappa)
heavy 1: not shown
heavy 2: not shown
light: B1 light
notes: also called He Ab E269_16H
B19: GpH7-A5/GpH7-B3 variant I336_06M/GpL16-k0 (antibody, human IgG1, kappa)
heavy 1: not shown
heavy 2: not shown
light: B1 light
notes: also called He Ab I336_06M
B20: GpH7-A5/GpH7-B3 variant E333_03V/GpL16-k0 (antibody, human IgG1, kappa)
heavy 1: not shown
heavy 2: not shown
light: B1 light
notes: also called He Ab E333_03V
B21: GpH7-A5/GpH7-B3 variant E269_18N/GpL16-k0 (antibody, human IgG1, kappa)
heavy 1: not shown
heavy 2: not shown
light: B1 light
notes: also called He Ab E269_18N
B22: GpH7-A5/GpH7-B3 variant E269_04F/GpL16-k0 (antibody, human IgG1, kappa)
heavy 1: not shown
heavy 2: not shown
light: B1 light
notes: also called He Ab E269_04F
B23: GpH7-A5/GpH7-B3 variant K326_16H/GpL16-k0 (antibody, human IgG1, kappa)
heavy 1: not shown
heavy 2: not shown
light: B1 light
notes: also called He Ab K326_16H
B24: GpH7-A5/GpH7-B3 variant E333_14T/GpL16-k0 (antibody, human IgG1, kappa)
heavy 1: not shown
heavy 2: not shown
light: B1 light
notes: also called He Ab E333_14T
B25: GpH7-A5/GpH7-B3 variant E269_05P/GpL16-k0 (antibody, human IgG1, kappa)
heavy 1: not shown
heavy 2: not shown
light: B1 light
notes: also called He Ab E269_05P
B26: GpH7-A5/GpH7-B3 variant E269_02A/GpL16-k0 (antibody, human IgG1, kappa)
heavy 1: not shown
heavy 2: not shown
light: B1 light
notes: also called He Ab E269_02A
B27: GpH7-A5/GpH7-B3 variant E333_12R/GpL16-k0 (antibody, human IgG1, kappa)
heavy 1: not shown
heavy 2: not shown
light: B1 light
notes: also called He Ab E333_12R
B28: GpH7-A5/GpH7-B3 variant A330_05P/GpL16-k0 (antibody, human IgG1, kappa)
heavy 1: not shown
heavy 2: not shown
light: B1 light
notes: also called He Ab A330_05P
B29: GpH7-A5/GpH7-B3 variant E269_06M/GpL16-k0 (antibody, human IgG1, kappa)
heavy 1: not shown
heavy 2: not shown
light: B1 light
notes: also called He Ab E269_06M

Target: T1, FcγRIa (human, UniProt P12314 16-292)
T1 construct: extracellular domain; also called FcgRI; 1a
Assay: SPR (Biacore); He Ab relative to HeCon Ab = 100
Procedure: Analysis of interaction between objective antibody and the FcγR was carried out using Biacore T100 (GE Healthcare). HBS-EP+ (GE Healthcare) was used as the running buffer, and the measurement temperature was set to 25° C. Chips produced by immobilizing the antigen peptide by the amine coupling method to a Series S Sencor Chip CM5 (GE Healthcare), or alternatively, chips produced by allowing preliminarily biotinylated antigen peptides to interact with and immobilize onto a Series S Sensor Chip SA (certified) (GE Healthcare) were used. Antibodies of interest were captured onto an antigen peptide-immobilized chip, and allowed to interact to each FcγR diluted with running buffer. To regenerate and repeatedly use the chip, the antibodies captured on the chip were washed off by reacting 10 mM glycine-HCl, pH 1.5.

T1 sequence (P12314 16-292): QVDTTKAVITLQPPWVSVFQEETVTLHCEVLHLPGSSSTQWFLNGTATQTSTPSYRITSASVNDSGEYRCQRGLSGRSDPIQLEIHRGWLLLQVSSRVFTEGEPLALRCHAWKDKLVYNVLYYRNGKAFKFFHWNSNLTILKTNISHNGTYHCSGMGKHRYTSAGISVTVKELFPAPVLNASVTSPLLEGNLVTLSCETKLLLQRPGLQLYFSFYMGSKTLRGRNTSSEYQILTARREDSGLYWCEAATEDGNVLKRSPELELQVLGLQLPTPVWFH

| He/Con_1a | Binder |
| --- | --- |
| 102 % of control | B1 |
| 102 % of control | B2 |
| 103 % of control | B3 |
| 103 % of control | B4 |
| 106 % of control | B5 |
| 106 % of control | B6 |
| 102 % of control | B7 |
| 109 % of control | B8 |
| 102 % of control | B9 |
| 105 % of control | B10 |
| 100 % of control | B11 |
| 104 % of control | B12 |
| 105 % of control | B13 |
| 108 % of control | B14 |
| 102 % of control | B15 |
| 102 % of control | B16 |
| 103 % of control | B17 |
| 106 % of control | B18 |
| 108 % of control | B19 |
| 105 % of control | B20 |
| 102 % of control | B21 |
| 103 % of control | B22 |
| 103 % of control | B23 |
| 102 % of control | B24 |
| 102 % of control | B25 |
| 104 % of control | B26 |
| 102 % of control | B27 |
| 101 % of control | B28 |
| 104 % of control | B29 |
